The series deals with the molecule itself. As to the kind of experiment: relative peak intensities in 2D HSQC NMR spectra; monomer/dimer/tetramer levels of CXCL7 as a function of buffer, temperature, pH and concentration (Table S1).

Where “and” joins values, the source holds several entries; their conditions need not be identical. Equal values may be shown once.

B1: CXCL7 (NAP-2, neutrophil-activating peptide 2), wild type (natural protein, UniProt P02775 59-128, looked up)
chain: AELRCMCIKTTSGIHPKNIQSLEVIGKGTHCNQVEVIATLKDGRKICLDPDAPRIKKIVQKKLAGDESAD
notes: Chemokine CXCL7, also known as NAP-2; 15N-labelled for the HSQC titrations; Exists as monomer, dimer and tetramer depending on pH and concentration; also called WT CXCL7; native CXCL7 monomer; source: Escherichia coli (LB or 15N/13C enriched minimal medium), purified (nickel column, reverse phase HPLC), lyophilized
As to B1, the “stoichiometry N” value was 4 and 2.
